From the supplement of paper PMC10567573

B1: ZNF449 (parent)
chain: RIHSGEEPHKCPECGKRFLRSSDL

Variants of: B1
Assay: protein stability index of a GFP-peptide fusion (GPS, HEK-293T) (PSI 1-6); higher = more stable
Settings: c terminus: a fixed tail appended
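Further: lentivirally expressed fusions sorted by FACS into six bins by GFP to DsRed ratio, PSI derived from sequencing read proportions per bin multiplied by bin number.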

| Variant | protein stability index |
| --- | --- |
| RIHSEEEPHKCPECGKRFLRSSDL [G5E] | 3.62 |
| RIHSFEEPHKCPECGKRFLRSSDL [G5F] | 3.22 |
| RIHSTEEPHKCPECGKRFLRSSDL [G5T] | 4.24 |
| RIHSAEEPHKCPECGKRFLRSSDL [G5A] | 3.79 |
| RIHSQEEPHKCPECGKRFLRSSDL [G5Q] | 3.82 |
| RIHSKEEPHKCPECGKRFLRSSDL [G5K] | 3.41 |
| RIHSHEEPHKCPECGKRFLRSSDL [G5H] | 4.07 |
| RIHSYEEPHKCPECGKRFLRSSDL [G5Y] | 3.56 |
| RIHSSEEPHKCPECGKRFLRSSDL [G5S] | 4.04 |
| RIHSWEEPHKCPECGKRFLRSSDL [G5W] | 3.63 |
| RIHSVEEPHKCPECGKRFLRSSDL [G5V] | 3.07 |
| RIHSMEEPHKCPECGKRFLRSSDL [G5M] | 3.75 |
| RIHSNEEPHKCPECGKRFLRSSDL [G5N] | 3.44 |
| RIHSIEEPHKCPECGKRFLRSSDL [G5I] | 3.34 |
| RIHSLEEPHKCPECGKRFLRSSDL [G5L] | 3.68 |
| RIHSPEEPHKCPECGKRFLRSSDL [G5P] | 2.85 |
| RIHSDEEPHKCPECGKRFLRSSDL [G5D] | 3.74 |
| RIHSREEPHKCPECGKRFLRSSDL [G5R] | 3.2 |
| RIHSGEEPAKCPECGKRFLRSSDL [H9A] | 3.42 |
| RIHSGEEPEKCPECGKRFLRSSDL [H9E] | 3.78 |
| RIHSGEEPDKCPECGKRFLRSSDL [H9D] | 3.5 |
| RIHSGEEPCKCPECGKRFLRSSDL [H9C] | 4.35 |
| RAHSGEEPHKCPECGKRFLRSSDL [I2A] | 3.42 |
| RPHSGEEPHKCPECGKRFLRSSDL [I2P] | 3.57 |

| Variant | protein stability index |
| --- | --- |
| RTHSGEEPHKCPECGKRFLRSSDL [I2T] | 4.76 |
| RRHSGEEPHKCPECGKRFLRSSDL [I2R] | 3.7 |
| RSHSGEEPHKCPECGKRFLRSSDL [I2S] | 3.18 |
| RYHSGEEPHKCPECGKRFLRSSDL [I2Y] | 3.79 |
| RLHSGEEPHKCPECGKRFLRSSDL [I2L] | 3.77 |
| RMHSGEEPHKCPECGKRFLRSSDL [I2M] | 3.48 |
| RDHSGEEPHKCPECGKRFLRSSDL [I2D] | 4.06 |
| RKHSGEEPHKCPECGKRFLRSSDL [I2K] | 3.43 |
| RFHSGEEPHKCPECGKRFLRSSDL [I2F] | 3.1 |
| RVHSGEEPHKCPECGKRFLRSSDL [I2V] | 3.98 |
| RNHSGEEPHKCPECGKRFLRSSDL [I2N] | 4.19 |
| RHHSGEEPHKCPECGKRFLRSSDL [I2H] | 3.46 |
| RQHSGEEPHKCPECGKRFLRSSDL [I2Q] | 3.91 |
| REHSGEEPHKCPECGKRFLRSSDL [I2E] | 3.5 |
| RCHSGEEPHKCPECGKRFLRSSDL [I2C] | 5.05 |
| RWHSGEEPHKCPECGKRFLRSSDL [I2W] | 3.9 |
| RGHSGEEPHKCPECGKRFLRSSDL [I2G] | 2.78 |
| AIHSGEEPHKCPECGKRFLRSSDL [R1A] | 3.75 |
| MIHSGEEPHKCPECGKRFLRSSDL [R1M] | 3.4 |
| KIHSGEEPHKCPECGKRFLRSSDL [R1K] | 3.6 |
| CIHSGEEPHKCPECGKRFLRSSDL [R1C] | 5.29 |
| DIHSGEEPHKCPECGKRFLRSSDL [R1D] | 4.13 |
| GIHSGEEPHKCPECGKRFLRSSDL [R1G] | 3.74 |
| NIHSGEEPHKCPECGKRFLRSSDL [R1N] | 3.72 |

| Variant | protein stability index |
| --- | --- |
| PIHSGEEPHKCPECGKRFLRSSDL [R1P] | 4.04 |
| HIHSGEEPHKCPECGKRFLRSSDL [R1H] | 4.07 |
| YIHSGEEPHKCPECGKRFLRSSDL [R1Y] | 1.9 |
| WIHSGEEPHKCPECGKRFLRSSDL [R1W] | 2.28 |
| EIHSGEEPHKCPECGKRFLRSSDL [R1E] | 4.41 |
| VIHSGEEPHKCPECGKRFLRSSDL [R1V] | 3.05 |
| QIHSGEEPHKCPECGKRFLRSSDL [R1Q] | 4.11 |
| FIHSGEEPHKCPECGKRFLRSSDL [R1F] | 1.38 |
| IIHSGEEPHKCPECGKRFLRSSDL [R1I] | 2.38 |
| LIHSGEEPHKCPECGKRFLRSSDL [R1L] | 2.92 |
| SIHSGEEPHKCPECGKRFLRSSDL [R1S] | 3.86 |
| TIHSGEEPHKCPECGKRFLRSSDL [R1T] | 3.37 |
| RIHSGEEIHKCPECGKRFLRSSDL [P8I] | 4.26 |
| RIHSGEEDHKCPECGKRFLRSSDL [P8D] | 4.1 |
| RIHSGEETHKCPECGKRFLRSSDL [P8T] | 3.45 |
| RIHSGEECHKCPECGKRFLRSSDL [P8C] | 3.19 |
| RIHSGEEQHKCPECGKRFLRSSDL [P8Q] | 4.29 |
| RIHSGEELHKCPECGKRFLRSSDL [P8L] | 3.41 |
| RIHSGEEFHKCPECGKRFLRSSDL [P8F] | 2.44 |
| RIHSGEEEHKCPECGKRFLRSSDL [P8E] | 3.44 |
| RIHSGEEMHKCPECGKRFLRSSDL [P8M] | 3.34 |
| RIHSGEEKHKCPECGKRFLRSSDL [P8K] | 2.51 |
| RIHSGEENHKCPECGKRFLRSSDL [P8N] | 3 |
| RIHSGEEWHKCPECGKRFLRSSDL [P8W] | 3.72 |

| Variant | protein stability index |
| --- | --- |
| RIHSGEEYHKCPECGKRFLRSSDL [P8Y] | 3.57 |
| RIHSGEEAHKCPECGKRFLRSSDL [P8A] | 3.64 |
| RIHSGEESHKCPECGKRFLRSSDL [P8S] | 3.25 |
| RIHSGEEHHKCPECGKRFLRSSDL [P8H] | 3.18 |
| RIGSGEEPHKCPECGKRFLRSSDL [H3G] | 2.72 |
| RIMSGEEPHKCPECGKRFLRSSDL [H3M] | 3.05 |
| RIVSGEEPHKCPECGKRFLRSSDL [H3V] | 3.34 |
| RIYSGEEPHKCPECGKRFLRSSDL [H3Y] | 3.32 |
| RISSGEEPHKCPECGKRFLRSSDL [H3S] | 3.74 |
| RIQSGEEPHKCPECGKRFLRSSDL [H3Q] | 4.33 |
| RIKSGEEPHKCPECGKRFLRSSDL [H3K] | 2.7 |
| RIESGEEPHKCPECGKRFLRSSDL [H3E] | 3.48 |
| RIFSGEEPHKCPECGKRFLRSSDL [H3F] | 2.63 |
| RIASGEEPHKCPECGKRFLRSSDL [H3A] | 3.48 |
| RICSGEEPHKCPECGKRFLRSSDL [H3C] | 3.76 |
| RIRSGEEPHKCPECGKRFLRSSDL [H3R] | 3.02 |
| RITSGEEPHKCPECGKRFLRSSDL [H3T] | 3.81 |
| RIISGEEPHKCPECGKRFLRSSDL [H3I] | 3.25 |
| RILSGEEPHKCPECGKRFLRSSDL [H3L] | 3.69 |
| RIDSGEEPHKCPECGKRFLRSSDL [H3D] | 3.85 |
| RIPSGEEPHKCPECGKRFLRSSDL [H3P] | 3.69 |
| RINSGEEPHKCPECGKRFLRSSDL [H3N] | 3.55 |
